Experiments:
FcγRI = FcγRI (UniProt P12314 16-288, limits assumed); assay: SPR (Biacore), receptor captured on anti-his chip, antibody injected, 1:1 Langmuir fit
Method: (§1) Antibody binding affinity to FcγRs was detected using Biacore T200 (or Biacore 8K). Each receptor was captured on an anti-his antibody immobilized CMS sensor chip (GE). Antibodies at different concentrations were injected over the sensor chip at a flow rate of 30 uL/min for an association phase of 60 s, followed by 60 s dissociation. The chip was then regenerated by 10 mM glycine (pH 1.5) after each binding cycle.
(§2) The sensorgrams of blank surface and buffer channel were subtracted from the test sensorgrams. The experimental data was fitted by 1:1 model using Langmiur analysis (for FcγRI) or steady state model (for other receptors). A molecular weight of 150 KDa was used to calculate the molar concentration of antibodies.

human CD19 [1] = biological target: T1, human CD19 (human, UniProt P15391 20-556); assay: cell-based or functional assay
T1 sequence (looked up): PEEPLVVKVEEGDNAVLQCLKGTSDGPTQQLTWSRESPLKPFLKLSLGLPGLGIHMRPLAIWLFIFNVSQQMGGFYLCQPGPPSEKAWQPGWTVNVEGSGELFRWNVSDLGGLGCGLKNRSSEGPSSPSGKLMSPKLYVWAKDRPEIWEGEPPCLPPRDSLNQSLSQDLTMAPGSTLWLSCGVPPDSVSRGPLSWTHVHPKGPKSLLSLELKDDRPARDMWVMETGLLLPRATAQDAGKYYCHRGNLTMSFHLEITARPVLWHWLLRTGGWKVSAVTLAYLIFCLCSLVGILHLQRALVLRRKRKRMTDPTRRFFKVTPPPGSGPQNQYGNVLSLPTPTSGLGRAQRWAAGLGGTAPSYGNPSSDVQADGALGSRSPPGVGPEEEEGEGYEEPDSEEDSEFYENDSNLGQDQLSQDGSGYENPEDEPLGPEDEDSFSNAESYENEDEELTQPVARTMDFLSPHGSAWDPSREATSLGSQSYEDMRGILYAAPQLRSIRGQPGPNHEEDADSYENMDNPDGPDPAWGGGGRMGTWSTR

[2] = biological target: T2, Cynomolgus CD3 epsilon protein (cynomolgus monkey, UniProt Q95LI5 22-117); assay: ELISA on coated cynomolgus CD3 epsilon protein
T2 construct: extracellular domain; The method names a bought protein (Acro # CDE-05226), the result names W331-cynoProl.ECD.His; also called W331-cynoProl.ECD.His; Acro # CDE-05226; not shown: His tag by the construct's name
T2 sequence (looked up): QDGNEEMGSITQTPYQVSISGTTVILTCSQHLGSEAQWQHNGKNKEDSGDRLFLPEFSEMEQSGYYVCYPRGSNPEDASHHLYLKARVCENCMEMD
Method: The binding of the CD3×CD19 bispecific antibody to cynomolgus CD3 were tested by protein binding ELISA. 96-well high protein binding ELISA plates (Nunc MaxiSorp, ThermoFisher, Thermo-442404) were coated overnight at 4° C. with 100 ul of 1 μg/ml Cynomolgus CD3 epsilon protein (Acro, # CDE-05226) in Carbonate-bicarbonate buffer (20 mM Na2CO3, 180 mM NaHCO₃, PH9.2). All wells were washed one time with 300 μL per well of PBS/0.5% Tween-20 (v/v). The wells were then blocked for one hour at room temperature with 200 μL per well of PBS/2% BSA (BOVOGEN, # BSAS) and washed three times with 300 μL per well of PBS/0.5% Tween-20 (v/v). For the primary antibody binding, CD3×CD19 bispecific antibody serially diluted in PBS/2% BSA were added to the relevant wells and incubated at room temperature for two hours. Plates were washed three times like before prior to the addition of 100 ul of 100 ng/ml secondary antibody Goat-anti-human IgG Fc-HRP (Bethyl, # A80-304P). Plates were incubated at room temperature for one hour, followed by six washes as described above. […] The extent of bispecific antibody binding to cynomolgus CD3 was determined by measuring the OD450 absorbance using the SpectraMax® M5e microplate reader. […]

human CD3 = biological target: T3, human CD3 (human, UniProt P07766 23-207); assay: flow cytometry affinity on Jurkat cells, bound/free versus bound plot; Jurkat cells, CD3
T3 construct: whole, on cells; On cells CD3 stands as the full CD3/TCR complex; also called CD3 on Jurkat cells
Method: (§3) Binding affinity to CD3 and CD19 was determined by flow cytometry using Jurkat and Ramos cells, respectively. The cells were transferred in to 96-well U-bottom plates (BD) at a density of 5×10⁴ cells/well. Antibodies to be tested were 1:2-fold serially diluted in 1% 1×PBS/1% BSA and incubated with cells at 4° C. for 1 hr. Then, the plates were centrifuged at 1500 rpm for 4 mins and the supernatant discarded. The secondary antibody, Alexa647 conjugated goat anti-human IgG Fc (Jackson, Cat #109-605-098) or FITC conjugated goat anti-His (Bethyl, Cat # A190-113F) was added to re-suspended cells and incubated at 4° C. in the dark for 30 min. The cells were washed once and re-suspended in 100 μL 1×PBS/1% BSA. Fluorescence intensity was measured by flow cytometry (BD Canto II) and analyzed by FlowJo. Fluorescence intensity was converted to bound molecules/cell based on the quantitative beads (Quantum™ MESF Kits, Bangs Laboratories). KD was calculated by Graphpad Prism5.
(§4) The binding affinity of W3438-T3U4.E17-1.uIgG4.SP to human CD19 and CD3 was tested on Ramos and Jurkat cells by flow cytometry. The bound IgG/free IgG versus bound IgG was plotted in FIGS. 14A-14B.

FcγRIIa (R167) = biological target: T4, FcγRIIa (R167) (UniProt P12318 36-218, limits assumed); assay: SPR (Biacore), receptor captured on anti-his chip, antibody injected, steady state fit
T4 sequence (looked up): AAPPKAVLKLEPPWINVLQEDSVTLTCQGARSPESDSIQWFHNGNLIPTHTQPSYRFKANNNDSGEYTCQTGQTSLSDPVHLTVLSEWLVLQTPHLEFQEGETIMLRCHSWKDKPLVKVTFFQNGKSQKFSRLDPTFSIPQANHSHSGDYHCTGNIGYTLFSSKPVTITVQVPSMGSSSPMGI
Method: as §1, §2

human CD19 [3] = biological target: T1, human CD19; assay: flow cytometry affinity on Ramos cells, bound/free versus bound plot; Ramos cells, CD19
Method: as §3, §4

FcγRI, sequence (P12314 16-288 limits assumed): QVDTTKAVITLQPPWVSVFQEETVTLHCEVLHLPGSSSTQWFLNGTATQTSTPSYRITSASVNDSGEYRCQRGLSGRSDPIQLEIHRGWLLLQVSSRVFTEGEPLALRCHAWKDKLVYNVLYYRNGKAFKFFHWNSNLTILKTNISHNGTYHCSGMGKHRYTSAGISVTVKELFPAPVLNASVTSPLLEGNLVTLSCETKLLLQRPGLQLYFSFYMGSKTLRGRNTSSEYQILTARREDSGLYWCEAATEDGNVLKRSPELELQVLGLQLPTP
T3 sequence (P07766 23-207): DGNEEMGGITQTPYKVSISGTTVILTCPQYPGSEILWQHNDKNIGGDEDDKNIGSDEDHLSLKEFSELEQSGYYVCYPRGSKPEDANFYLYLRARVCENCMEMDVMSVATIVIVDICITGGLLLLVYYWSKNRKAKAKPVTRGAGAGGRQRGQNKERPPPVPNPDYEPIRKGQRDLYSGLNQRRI

B1: W3438-T3U4.E17-1.uIgG4.SP (bispecific antibody)
light 1: DIVMTQSPDSLAVSLGERATINCKSSQSLLNSRTRKNYLAWYQQKPGQPPKLLIYWASTRQSGVPDRFSGSGSGTDFTLTISSLQAEDVAVYYCTQSHTLRTFGGGTKVEIKPDIQNPDPAVYQLRDSKSSDKSVCLFTDFDSQTQVSQSKDSDVYITDKCVLDMRSMDFKSNSAVAWSQKSDFACANAFQNSIIPEDTFFPSPESS
heavy 1: QVQLVQSGAEVKKPGSSVKVSCKASGFAFTDYYIHWVRQAPGQGLEWMGWISPGNVNTKYNENFKGRVTITADKSTSTAYMELSSLRSEDTAVYYCARDGYSLYYFDYWGQGTLVTVLEDLKNVFPPEVAVFEPSEAEISHTQKATLVCLATGFYPDHVELSWWVNGKEVHSGVCTDPQPLKEQPALQDSRYALSSRLRVSATFWQNPRNHFRCQVQFYGLSENDEWTQDRAKPVTQIVSAEAWGRYGPPCPPCPAPEFLGGPSVFLFPPKPKDTLMISRTPEVTCVVVDVSQEDPEVQFNWYVDGVEVHNAKTKPREEQFNSTYRVVSVLTVLHQDWLNGKEYKCKVSNKGLPSSIEKTISKAKGQPREPQVYTLPPCQEEMTKNQVSLWCLVKGFYPSDIAVEWESNGQPENNYKTTPPVLDSDGSFFLYSRLTVDKSRWQEGNVFSCSVMHEALHNHYTQKSLSLSLGK
light 2: DIQLTQSPSFLSASVGDRVTITCSASSTVNYMHWYQQKPGKAPKLLIYSTSNLASGVPSRFSGSGSGTEFTLTISSLQPEDFATYYCHQWSSYPYTFGQGTKLEIKRTVAAPSVFIFPPSDEQLKSGTASVVCLLNNFYPREAKVQWKVDNALQSGNSQESVTEQDSKDSTYSLSSTLTLSKADYEKHKVYACEVTHQGLSSPVTKSFNRGEC
heavy 2: QMQLVQSGPEVKKPGTSVKVSCKASGYAFTSYNMYWVRQARGQRLEWIGYIDPYNGDTTYNQKFKGRVTITRDMSTSTAYMELSSLRSEDTAVYYCLTTAYAMDYWGQGTLVTVSSASTKGPSVFPLAPCSRSTSESTAALGCLVKDYFPEPVTVSWNSGALTSGVHTFPAVLQSSGLYSLSSVVTVPSSSLGTKTYTCNVDHKPSNTKVDKRVESKYGPPCPPCPAPEFLGGPSVFLFPPKPKDTLMISRTPEVTCVVVDVSQEDPEVQFNWYVDGVEVHNAKTKPREEQFNSTYRVVSVLTVLHQDWLNGKEYKCKVSNKGLPSSIEKTISKAKGQPREPQVCTLPPSQEEMTKNQVSLSCAVKGFYPSDIAVEWESNGQPENNYKTTPPVLDSDGSFFLVSRLTVDKSRWQEGNVFSCSVMHEALHNHYTQKSLSLSLGK
notes: Bispecific, bivalent: one anti-CD3 arm with TCR constant domains and one native anti-CD19 Fab arm, IgG4 S228P Fc with knobs-into-holes; also called WBP3438; CD3×CD19 bispecific antibody; copies: 1 + 1 + 1 + 1
Kd (FcγRI): 9.79 nM
cytotoxic activity on Raji cells with CD8+ T cells, EC50 (human CD19 [1]): 15 nM
EC50 [2]: 0.04 nM
Kd (human CD3): 9 nM
Kd (FcγRIIa (R167)): 15800 nM
Kd (human CD19 [3]): 23 nM

— patent US20200283523A1 (WUXI BIOLOGICS IRELAND, published 2020)
